The values below come from article PMC8423902 (Cell Reports, 2021).

In this assay the target is trimeric SARS-CoV-2 ectodomain (S 6P trimer, residues 16-1206) (SARS-CoV-2, early isolate GenBank …, UniProt P0DTC2, stabilised). Nature of the assay: cryo-EM structure.

B1: C118 Fab (Fab, V domains shown)
VH: QVQLVESGGGVVQPGRSLRLSCAASGFTFSNYAMHWVRQAPGKGLEWVAVISYDGSNKYYADSVKGRFTISRDNSKNTLYLQMNSLRAEDTAIYYCASGYTGYDYFVRGDYYGLDVWGQGTTVTVSS
VL: QPVLTQSPSASASLGASVKLTCTLSSGHSSYAIAWHQQQPEKGPRYLMKLNTDGSHSKGDGIPDRFSGSSSGAERYLTISSLQSEDEADYYCQTWGTGILVFGGGTKLTVL
In the case of B1, the binding result is “binds”.
